Test results published in patent publication EP0826043B1.

How the values were obtained:
Assay in all cases: cell-based or functional assay
[1] = target: Fas cell surface receptor (human) (UniProt P25445)
[2] = target: CD28 ligand B7-2 on mouse lymph node accessory cells (mouse) (UniProt P42082)
[3] = target: CD28 ligand B7-1 on mouse lymph node accessory cells (mouse) (UniProt Q00609)
[4] = target: CD3 (TCR/CD3 complex) on Jurkat cells

Chain of UniProt P42082 (P42082 24-309): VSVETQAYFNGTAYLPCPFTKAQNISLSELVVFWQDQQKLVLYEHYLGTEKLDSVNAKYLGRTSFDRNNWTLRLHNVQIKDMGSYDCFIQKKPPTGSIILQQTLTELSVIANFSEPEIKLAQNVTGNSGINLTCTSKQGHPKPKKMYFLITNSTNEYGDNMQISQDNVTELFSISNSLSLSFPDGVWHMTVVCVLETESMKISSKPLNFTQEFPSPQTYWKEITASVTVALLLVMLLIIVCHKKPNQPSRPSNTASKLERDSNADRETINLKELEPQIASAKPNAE
Chain of UniProt Q00609 (Q00609 38-306): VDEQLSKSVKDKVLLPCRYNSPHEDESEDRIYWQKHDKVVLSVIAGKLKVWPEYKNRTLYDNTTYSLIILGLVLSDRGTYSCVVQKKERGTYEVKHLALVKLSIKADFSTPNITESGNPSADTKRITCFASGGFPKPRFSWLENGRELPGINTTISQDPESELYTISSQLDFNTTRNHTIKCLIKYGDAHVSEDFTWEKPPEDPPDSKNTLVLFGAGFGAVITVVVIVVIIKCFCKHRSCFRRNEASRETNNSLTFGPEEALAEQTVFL
Chain of UniProt P25445 (P25445 26-335): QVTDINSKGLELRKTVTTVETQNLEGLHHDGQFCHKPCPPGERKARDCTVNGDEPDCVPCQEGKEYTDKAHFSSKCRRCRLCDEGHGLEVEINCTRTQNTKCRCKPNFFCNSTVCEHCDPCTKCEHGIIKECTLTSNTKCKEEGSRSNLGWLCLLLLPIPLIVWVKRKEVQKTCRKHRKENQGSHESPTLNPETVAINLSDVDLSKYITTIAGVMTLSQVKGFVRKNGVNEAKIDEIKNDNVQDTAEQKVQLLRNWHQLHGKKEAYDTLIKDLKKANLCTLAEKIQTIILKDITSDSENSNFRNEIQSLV

## CH-11 anti-Fas monoclonal antibody (Panvera)
[1]
  viability (propidium iodide exclusion) of control (Neo) Jurkat transfectants treated with Fas antibody at 10 ng/ml: < 10%

## CTLA4Ig (from Repligen) (Fc fusion)
[2]
  viability of activated Thy-1 positive T cells at 72 hrs: 20%
[3]
  viability of activated Thy-1 positive T cells at 72 hrs: 20%

## anti-CD3 (OKT3) (antibody)
[4]
  cell death of Neo Jurkat clones treated with plate bound anti-CD3 (propidium iodide exclusion): 30 to 60%
